# Data from the RNAGym collection of RNA variant scans (doi:10.1073/pnas.2313332121).
# This sample holds only a part of the variants without activity.
# B1: TPR 5TU (parent)
# chain: GGAUCUUCUCGAUCUAACAAAAAAGACAAAUCUGCCACAAAGCUUGAGAGCAUCUUCGGAUGCAGAGGCGGCAGCCUUCGGUGGCGCGAUAGCGCCAACGUUCUCAACUAUGACACGCAAAACGCGUGCUCCGUUGAAUGGAGUUUAUCAUG
# Variants of: B1
# Experiment: polymerase ribozyme fitness, log enrichment relative to wild type (log ratio); higher = more active; in vitro selection for triplet polymerase activity
# Procedure, shortened: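 The heterodimeric triplet polymerase ribozyme's subunits were each mutagenized into PCR-built libraries and transcribed. Every library was selected once, in triplicate, by annealing with a biotinylated primer, the partner subunit and triplets, incubating frozen at −7 °C, gel-excising extended constructs, capturing on streptavidin beads and running RT-PCR. Input and output libraries were Illumina-sequenced, with genotypes kept only at ≥10 input reads and ≥1 read per output. Fitness, from inverse-variance-weighted replicate averages, is the base-2 logarithm of genotype enrichment over wild-type enrichment.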
row,Variant,polymerase ribozyme fitness (log ratio)
1,A17G A30G C36A C99A,≤ -4.2
2,A17G U56A G62C G152A,-3.06
3,A17U G48C G50U C76A C93A,≤ -4.2
4,A16U U139G G140U,≤ -4.2
5,A16U U56A G83A U109C U111G,≤ -4.2
6,A17U C85G,-2.57
7,A17U C95U C99A A107G G133U,≤ -4.2
8,A17U A26C G62U U78G G100A G152U,≤ -4.2
9,A17U A30C C38U U53G G58U C99U C132U,≤ -4.2
10,A17G C36U C93G,-3.8
11,A17C U44G G88A C95G C103U G141C,≤ -4.2
12,A17G A29C C32G G48C,≤ -4.2
13,A17G U53A C79A G141C,≤ -4.2
14,A17G C57U A113C,-3.96
15,A17C A30G C79G C87G C96G C105A,≤ -4.2
16,A17C G59A A60C G81C C95U C116U,0.238
17,A17G A29U G67U G100A C123G C132G,≤ -4.2
18,A17G G58C U61G G71U G86C U104G G143C,≤ -4.2
19,A17G A49U G83U,-3.31
20,A17C A21U A29U U53G A73G G94A,≤ -4.2
21,A17G G58A C93U U101G U139A,≤ -4.2
22,A17G C95U G141A,0.672
23,A17C C27A A52G A60U C69U C85A C95G C125A,≤ -4.2
24,A17G A89G,-0.582

row,Variant,polymerase ribozyme fitness (log ratio)
1,A16U G92U,-2.29
2,A17G A39C A107U,≤ -4.2
3,A17U C36A C54U G74C A120U U144A,≤ -4.2
4,A16U U61A C95U,-3.06
5,A17U G59U C93U C114G,-3
6,A17U C87U C96U U104C A107U G141U,≤ -4.2
7,A17C C32U,-1.61
8,A17U A24C A26G C57U G86A,≤ -4.2
9,A17G U53A,-0.401
10,A17G C51U U55G C79U G83U C95A C118G U145C,≤ -4.2
11,A17U A49G C85U C116A,-0.0919
12,A17G C36G C79A C95U A97U G117U G126U,-4.08
13,A17U A28U C38U,≤ -4.2
14,A17U C54A U90G C96A C118G,≤ -4.2
15,A17G U53A C75G A91G A113G G143A,≤ -4.2
16,A17U A98G,-0.0344
17,A17C A21U C51U G59C C95U A106U G136C U151G,≤ -4.2
18,A16U G58A C93A,-3.46
19,A17U A20C C57U A60U C93A G94U A122C G126U,≤ -4.2
20,A17U A40C G58C C76U G84U U144G,-0.372
21,A17G A21G C96G,0.392
22,A17G A147U,1.55
23,A17U A22U U90G C125A U139C,≤ -4.2
24,A17C G81U C85A C95U C105G A115U,-3.03

row,Variant,polymerase ribozyme fitness (log ratio)
1,A17G G62C G81A,-1.76
2,A16U U53A G80U C85U G152U,≤ -4.2
3,A16U U31A G83A C105U,-1.17
4,A17G C54G,-1.5
5,A17G A39G U56A C85G A115G,-3.92
6,A17U C114U,-1.91
7,A17U A41U G86U A113C,≤ -4.2
8,A17G A19U C93U U102C G136A U148A,≤ -4.2
9,A17G A52G C85G,-2.03
10,A17G C18G A40C C85G A106U G124U C125U,≤ -4.2
11,A16U G81A,-1.95
12,A17U G25C,-4.13
13,A17G U44A A91G,≤ -4.2
14,A17G C27A C35G C75A G86C A142G,≤ -4.2
15,A17G C18A C69G U101G C105U A120U A142U,-1.71
16,A17U C18A C35U C36G C105A,≤ -4.2
17,A17C A21G A40U G86U A122U,-1.48
18,A17G A23U A26U C116G A138C A142C,≤ -4.2
19,A17U C36G G67U C87G C95G C99A C103A,≤ -4.2
20,A17C A19U G58A A97G U102G A119G,-3.63
21,A17C U53G U55A A121G,-1.71
22,A17U A47C C51G U61A G83A,≤ -4.2
23,A17U A40C C43G A52G G92C G128C,≤ -4.2
24,A17G G48U C87U A89U A119C,-2.96

row,Variant,polymerase ribozyme fitness (log ratio)
1,A16U G58U,-2.34
2,A17C C125G G126A,-3.65
3,A17U A26C G62A G86U C99U U134C A137U G140A A147U,≤ -4.2
4,A17G A52U G83A C95U,-3.91
5,A17U A52U C57U C96U A98U C103G A121C G140C,≤ -4.2
6,A17G C75U C95U,0.0451
7,A16U G94C,-2.55
8,A16U U33A G42A C93U G140A,≤ -4.2
9,A17C G92C,0.012
10,A17C C57U U82C,-0.0541
11,A17C A20C U53G G84A,-2.28
12,A17C A23U G59U G84A U90C U151A,≤ -4.2
13,A17U C54A G92U C149U,-2.92
14,A17G A22G U82C C99A,-2.88
15,A17U C57U G136A,0.435
16,A17U C18U C96G C125U,-1.1
17,A17G A39C G68C C93G,≤ -4.2
18,A17C A19C A73G C96U C123U C125G,-3.23
19,A17G A21C U44A A91C C108U,≤ -4.2
20,A17C C36U G68C G86A U139A,≤ -4.2
21,A17U A19C C87G A89U,≤ -4.2
22,A17G A19U U53A U56G A60U C69G U111G A142G,≤ -4.2
23,A17U G71A C87G G140U,≤ -4.2
24,A17G G141C,0.607

row,Variant,polymerase ribozyme fitness (log ratio)
1,A17U A19G A22U C93A,-4.01
2,A17G G83U A107U U135C,≤ -4.2
3,A16U U33C C38U G140U,≤ -4.2
4,A17G G59U G80A C85A,-0.447
5,A16U U44G G48A C87U U102G C131U C132G,≤ -4.2
6,A17U C87U,-1.75
7,A16U U55G C87U,-2.67
8,A17C U61G C85U G126A G140U U151A G152C,≤ -4.2
9,A17U C87U G94C,-3.01
10,A17U A30G G42U G81C C85U A122U,≤ -4.2
11,A17C U102A,-0.663
12,A17C G74C C87U G92C C105G G136U,≤ -4.2
13,A17U C38A U53A G74A C95U,≤ -4.2
14,A17G C35U C36U C95U,≤ -4.2
15,A17U A39G G50C A52C C96U C118U,≤ -4.2
16,A17U C57G,-0.677
17,A17C U55A G59A A60G C96A G143U,-3.41
18,A17C G84C A142G,-3.21
19,A17G C57A A91G C95G A122U,-4.04
20,A17G C72U G88U U102C C105G,≤ -4.2
21,A17U G50C G68C C85G G94A A106U C123U U134A U135A,≤ -4.2
22,A17G A40U U55A U56A C103A A119G U134A,≤ -4.2
23,A17G A21G C57U C96A A137U A138G,≤ -4.2
24,A17G C18G U31G G68A C87U G133U,≤ -4.2

row,Variant,polymerase ribozyme fitness (log ratio)
1,A17U G65C A89U C93G G112C,≤ -4.2
2,A17C C54A,-1.11
3,A17U C27G G58C C96A C116U,≤ -4.2
4,A17U A24U A39G C63G,-4.15
5,A16U U56G G84A U102A G141U,-3.81
6,A17U C35A C69G U78G G84A A91G C103A,≤ -4.2
7,A16U G83A A106G A107C C118U C123G C129G A150G,≤ -4.2
8,A17G A49U G71C C79A A106U,≤ -4.2
9,A17C C35U G74A C76A U78G,≤ -4.2
10,A17G G50U A66G G92C C95U G141A,≤ -4.2
11,A17G C76U,-0.119
12,A17G A60G C85G A89U,-2.31
13,A17G C96U,0.456
14,A17G C96G,-1.29
15,A17G G42C C43A C85A G143U,≤ -4.2
16,A17G G83U U134A,-2.39
17,A16U G88C,≤ -4.2
18,A17G G70A C85G,≤ -4.2
19,A17C C99A,-0.000978
20,A17C A37C C93G,-2.89
21,A17G A20C A30G G46A G59U G67C G68U G70U C96G,≤ -4.2
22,A17G G58A G59C C69U C95U U104A,-3.74
23,A16U U56A G62A U82G C85U A142G,-4.16
24,A16U U61G G81A,-1.91

row,Variant,polymerase ribozyme fitness (log ratio)
1,A17U C95U,-0.895
2,A17U C18A C54U U55G C75U C95A,-1.89
3,A17C A40G C54A G83A G124A,≤ -4.2
4,A16U U53C A73G G94C A150C,≤ -4.2
5,A16U G143C,-3.63
6,A17U C32U G128U,≤ -4.2
7,A17G A24U A26U G58A,-4.02
8,A17U A20U G50C,≤ -4.2
9,A17C C95U A119U A150G,-1.7
10,A17U G58U G74C G86A,≤ -4.2
11,A16U G84U G86U C93G U144C,-3.51
12,A17U A29U A37C C75U G80U G92A C125U A142C,≤ -4.2
13,A17U C93U,-1.07
14,A17G A37U A47U C85U,-1.62
15,A17U A24U C36A G59A U77G G83A A98U C105U C116G,≤ -4.2
16,A17U G50A,-2.57
17,A17C A40C G83C U109G,-3.6
18,A16U G133C U146A,-3.79
19,A17G C18A G84C C93U,-3.84
20,A17C A47U G58A G83U G94A G126U,≤ -4.2
21,A17C G59C U102G C123A,-2.05
22,A16U G58U C69U U78G G80C C96A G141U,≤ -4.2
23,A17U C85A C96G,-2.34
